Consider 36 sequences from the supplement of paper PMC10567573.

± gives the standard deviation.

The data set can be described thus: protein stability index of a GFP-peptide fusion (GPS, HEK-293T) (PSI 1-6); higher = more stable. Conditions: c terminus: a fixed tail appended.
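Note: 24-mer peptide tiles fused after GFP, lentivirally expressed, FACS-sorted into six equal bins by GFP/DsRed ratio, decoded by Illumina sequencing, PSI is the read-weighted mean bin number.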

In the case of DLIDVDLIRGSTFAKAKPEIPWTS [PHTF1], the protein stability index is 2.25 ± 0.17 (treatment: DMSO) and 2.46 ± 0.22 (treatment: MLN4924 1 uM, 8 h).

As for DLLRNTHFRGVSLNLTRKLAQQLC [DYRK1B], the protein stability index is, setting by setting: (treatment: DMSO) 2.35 ± 0.48; (treatment: MLN4924 1 uM, 8 h) 2.22 ± 0.3.

On to DLPEVESLPRDRVLGFLIENFKGL [VPS39], for which the protein stability index by setting is: (treatment: DMSO) 3.27 ± 0.59; (treatment: MLN4924 1 uM, 8 h) 3.19 ± 0.34.

Consider DMMVMGRKPDPMCVFTYVQSLYNH [SMTNL2], for which the protein stability index reads like this: (treatment: DMSO) 2.28 ± 0.24; (treatment: MLN4924 1 uM, 8 h) 2.2 ± 0.34.

DNPLDRPLVGQDEFFLEQTKKKGV [NOP53]: the protein stability index is, setting by setting: (treatment: DMSO) 5.25 ± 0.3; (treatment: MLN4924 1 uM, 8 h) 5.37 ± 0.22.

For DPLANGCQGVSEAAHRLARRLYHL [PSD2], the protein stability index is, setting by setting: (treatment: DMSO) 3.24 ± 0.18; (treatment: MLN4924 1 uM, 8 h) 3.52 ± 0.059.

Regarding DPTNWLRCYYYEDTISTIKSVAWE [NCF4], the protein stability index (treatment: DMSO) is 2.12 ± 0.47 and the protein stability index (treatment: MLN4924 1 uM, 8 h) came out at 2.47 ± 0.13.

For DQDEGEWGLDQEQVFSLGDGVSGG [ZBED1], the protein stability index by setting is: (treatment: DMSO) 5.57 ± 0.17; (treatment: MLN4924 1 uM, 8 h) 5.42 ± 0.12.

Turning to DRGIKGDITPLMAAANGGHVKIVK [ANKRD17], the protein stability index is, setting by setting: (treatment: DMSO) 4.42 ± 0.11; (treatment: MLN4924 1 uM, 8 h) 4.38 ± 0.085.

As for DRIATTDDTTAMASASSSATGSFS [MAGEA10], the protein stability index is, setting by setting: (treatment: DMSO) 5.2 ± 0.11; (treatment: MLN4924 1 uM, 8 h) 5.28 ± 0.09.

Regarding DRRKKIARMGFNASSMLRKSQLGF [DCAF4], the protein stability index by setting is: (treatment: DMSO) 2.67 ± 0.34; (treatment: MLN4924 1 uM, 8 h) 2.84 ± 0.13.

As to DSEEELAAFCPQLDDSTVARELAI [RETREG3], the protein stability index turned out to be 5.12 ± 0.28 (treatment: DMSO) and 5.24 ± 0.19 (treatment: MLN4924 1 uM, 8 h).

Consider DSGVGASLTRSNRHRLRWHSFQSS [DLC1], for which the protein stability index is, setting by setting: (treatment: DMSO) 3.03 ± 0.13; (treatment: MLN4924 1 uM, 8 h) 3.04 ± 0.21.

Consider DSIKDEDRTSLATFHEGKHNISHM [WDFY1], for which the protein stability index stood at 4.66 ± 0.23 (treatment: DMSO) and 4.59 ± 0.28 (treatment: MLN4924 1 uM, 8 h).

For DTMRQINKKGFWSYGPVILVVLVV [TOR1AIP2], the protein stability index is, setting by setting: (treatment: DMSO) 2.49 ± 0.48; (treatment: MLN4924 1 uM, 8 h) 2.42 ± 0.37.

DVLENAFAPLLDEQYDLATKRVRQ [GOLPH3]: the protein stability index is, setting by setting: (treatment: DMSO) 3.43 ± 0.26; (treatment: MLN4924 1 uM, 8 h) 3.52 ± 0.5.

With DVYSFAIVIWGVLTQKKPFADEKN [RIPK4], the protein stability index reads like this: (treatment: DMSO) 2.61 ± 0.77; (treatment: MLN4924 1 uM, 8 h) 1.86 ± 0.072.

Turning to EAAEGRNKNEVFYQCPDQMARNPA [FBXO3], the protein stability index is, setting by setting: (treatment: DMSO) 5 ± 0.32; (treatment: MLN4924 1 uM, 8 h) 4.67 ± 0.52.

Turning to EACKAFFKRTIQGSIEYSCPASNE [ESRRA], the protein stability index came out at 2.98 ± 0.19 (treatment: DMSO) and 3 ± 0.17 (treatment: MLN4924 1 uM, 8 h).

As to EADVNGLRRVLDELTLARTDLEMQ [KRT16], the protein stability index runs as follows: (treatment: DMSO) 4 ± 0.35; (treatment: MLN4924 1 uM, 8 h) 4.07 ± 0.094.

Turning to EAEAADSGAVGARRFLLCLYLVGF [MFSD9], the protein stability index worked out at 2.79 ± 0.91 (treatment: DMSO) and 2.65 ± 0.71 (treatment: MLN4924 1 uM, 8 h).

In turn, EALAKQVASEMRFVQDLVRALEQE [DAPK3] gave a protein stability index (treatment: DMSO) of 2.95 ± 0.25 and a protein stability index (treatment: MLN4924 1 uM, 8 h) of 3.09 ± 0.54.

As to EAQAFRALVQEKIQKRNQRQSGDR [WAS], the protein stability index was 4.5 ± 0.12 (treatment: DMSO) and 4.5 ± 0.13 (treatment: MLN4924 1 uM, 8 h).

For the sequence EDENDLEELNNGEPQTEHQQESES [MIA2], the protein stability index amounted to 5.57 ± 0.21 (treatment: DMSO) and 5.74 ± 0.12 (treatment: MLN4924 1 uM, 8 h).

Consider EDLKGHVAETSGETIQGFWLLTKI [TPRG1], for which the protein stability index by setting is: (treatment: DMSO) 2.37 ± 0.59; (treatment: MLN4924 1 uM, 8 h) 2.07 ± 0.3.

On to EDVLLLNFEEMRALLDSLPPPVES [KLHL14], for which the protein stability index was 3.34 ± 0.24 (treatment: DMSO) and 3.57 ± 0.41 (treatment: MLN4924 1 uM, 8 h).

Take EEDCAWSQELPPPDPGPSPEASHL [ZNF263]: the protein stability index is 5.44 ± 0.25 (treatment: DMSO) and 5.58 ± 0.25 (treatment: MLN4924 1 uM, 8 h).

On to EEGSANRRPEDQELESLSAIEAEL [CHGA], for which the protein stability index came out at 5.59 ± 0.14 (treatment: DMSO) and 5.45 ± 0.095 (treatment: MLN4924 1 uM, 8 h).

Consider EEHTTILRPSYTGLSSSSARFLSR [CDC14A], for which the protein stability index reads like this: (treatment: DMSO) 3.57 ± 0.12; (treatment: MLN4924 1 uM, 8 h) 3.7 ± 0.19.

With EEIKFYELGEEAMEKFREDEGFIK [KCNA1], the protein stability index came to 4.71 ± 0.36 (treatment: DMSO) and 4.84 ± 0.14 (treatment: MLN4924 1 uM, 8 h).

For EELEDSKALLYLPIAPEVEDPEEN [RBBP5], the protein stability index reads like this: (treatment: DMSO) 5.5 ± 0.6; (treatment: MLN4924 1 uM, 8 h) 5.24 ± 0.42.

Take EEVPEAYVDIHTGLSGSGVAFVCA [PYCR3]: the protein stability index runs as follows: (treatment: DMSO) 2.76 ± 0.53; (treatment: MLN4924 1 uM, 8 h) 2.66 ± 0.43.

Turning to EFGALMSNYSLPPPLPTYHVLLEG [TRIM29], the protein stability index runs as follows: (treatment: DMSO) 2.7 ± 0.98; (treatment: MLN4924 1 uM, 8 h) 2.15 ± 0.33.

EFIQEIRRQLEACQRERAFSVKFE [OAS1] yielded a protein stability index (treatment: DMSO) of 2.29 ± 0.31 and a protein stability index (treatment: MLN4924 1 uM, 8 h) of 2.27 ± 0.56.

In the case of EFKAAFDMFDADGGGDISVKELGT [TNNC2], the protein stability index reads like this: (treatment: DMSO) 4.16 ± 0.13; (treatment: MLN4924 1 uM, 8 h) 4.63 ± 0.11.

EFMKTLEKTGPQLTSRIKGDWIGL [DENND6A] gave a protein stability index (treatment: DMSO) of 2.06 ± 0.23 and a protein stability index (treatment: MLN4924 1 uM, 8 h) of 2.23 ± 0.25.
